Measurements taken from the supplement of paper PMC9732359.
± gives the uncertainty stated by the source.

Assay: protein stability index of a GFP-peptide fusion (yeast GPS) (PSI 1-4); higher = more stable; sorted into four equal gates, so the index is relative within each strain
How it was run: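 Plasmids isolated from each sorting gate were PCR-amplified and Illumina-sequenced, and barcodes assigned the reads to strains. The gates, four of equal size, were set by GFP/Cherry fluorescence ratio on mid-log cultures in leucine-free medium. These cultures were yeast carrying a pooled library of tiled 17-residue yeast protein peptides fused downstream of GFP on a plasmid that also expresses Cherry. The protein stability index is the sum of every gate's read frequency times its gate number.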

Sequence | protein stability index (doa10∆) | protein stability index (pdr5∆) | protein stability index (san1∆) | protein stability index (ubr1∆)
YSIPHPSENLLNIRIQT [RPC19] | 2.1 ± 0.098 | 2.21 ± 0.078 | 2.65 ± 0.12 | 2.38 ± 0.11
IQHVGMINGRKLIKFET [FAS1] | 2.82 ± 0.072 | 2.85 ± 0.074 | 3.05 ± 0.085 | 2.81 ± 0.041
SPFFVLDEVDAALDITN [SMC1] | 2.39 ± 0.093 | 2.78 ± 0.071 | 2.63 ± 0.066 | 2.69 ± 0.057
NMKVTILHGSKSQEQRE [PRP28] | 3.42 ± 0.093 | 3.31 ± 0.15 | 3.25 ± 0.046 | 3.35 ± 0.06
YGESDIHFREHQSELII [YMR129W/POM152] | 2.31 ± 0.089 | 2.89 ± 0.096 | 2.21 ± 0.13 | 2.49 ± 0.077
NGQEQQGPVKNTQLHGP [RGR1] | 3.02 ± 0.077 | 3.12 ± 0.057 | 3.05 ± 0.052 | 3.1 ± 0.044
NRPDNKNAQYHLLVKQG [RPN7] | 2.86 ± 0.056 | 2.58 ± 0.053 | 2.79 ± 0.05 | 2.78 ± 0.036
LLHEMTQTYMQMIELNR [GRR1] | 2.18 ± 0.072 | 2.11 ± 0.051 | 2.2 ± 0.088 | 1.68 ± 0.048
EQLKEQMEDMEESINEF [SMC4] | 3.17 ± 0.21 | 3.2 ± 0.1 | 3.17 ± 0.048 | –
RLGEMERDCVIAYGASQ [RET1] | 3.24 ± 0.095 | 3.28 ± 0.086 | 2.55 ± 0.13 | 3.22 ± 0.062
KESIVLPTVGFDFIKDN [YOR098C/NUP1] | 2.39 ± 0.14 | 2.65 ± 0.11 | 3.05 ± 0.16 | 2.83 ± 0.07
MPGGYFHSEISPDSTVN [YAR002W/NUP60] | 2.56 ± 0.076 | 3 ± 0.095 | 2.54 ± 0.061 | 2.76 ± 0.063
RFKSQFLYVLIPAGIYW [QCR8] | 1.75 ± 0.14 | 2.15 ± 0.069 | 2.07 ± 0.12 | 2.37 ± 0.092
ASTPSIRPDGRLPHQFR [RRP42] | 2.9 ± 0.14 | 3.21 ± 0.12 | 2.81 ± 0.19 | 2.99 ± 0.089
SKLKKETASFIPTKESL [YIL149C/MLP2] | 2.74 ± 0.072 | 3.15 ± 0.098 | 2.44 ± 0.15 | 2.57 ± 0.057
NGVVIATEKKSSSPLAM [PRE8] | 2.91 ± 0.19 | 3 ± 0.17 | 2.55 ± 0.26 | 3.07 ± 0.11
TAVSFVSAAEDESLIRE [PRP28] | 2.77 ± 0.093 | 3.27 ± 0.15 | 3.04 ± 0.16 | 2.2 ± 0.15
VSDHLDAIYRELTKNPN [SMC1] | 2.87 ± 0.23 | – | – | –
LITVMEKSPDPTIRSNA [YCS4] | 2.35 ± 0.052 | 2.48 ± 0.051 | 2.34 ± 0.053 | 2.57 ± 0.038
NKTLTLDLKECYQFAEY [ARP7] | 1.96 ± 0.089 | 2.3 ± 0.072 | 1.9 ± 0.17 | 2.69 ± 0.1
TGISQKSMSILNSFVND [HTB1] | 2.96 ± 0.06 | 2.94 ± 0.074 | 2.6 ± 0.075 | 2.67 ± 0.087
SNEEQRNLDSATLKEIK [SMC3] | 3.5 ± 0.14 | 3.21 ± 0.13 | 3.46 ± 0.084 | 3.48 ± 0.16
VKVLAATNRVDVLDPAL [RPT5] | 3.08 ± 0.099 | 2.84 ± 0.1 | 3.02 ± 0.075 | 2.89 ± 0.071
SKNSKLSIICVGGHNVT [SIR3] | 1.71 ± 0.069 | 1.57 ± 0.039 | 1.39 ± 0.081 | 1.52 ± 0.041
DLNKENKLLRRKLMEME [YIL149C/MLP2] | 3.41 ± 0.2 | 2.95 ± 0.21 | 3.33 ± 0.11 | –
DDTWYNLTEFVQMDKIR [AAR2] | 2.82 ± 0.11 | 2.88 ± 0.081 | 2.79 ± 0.061 | 2.83 ± 0.084

Sequence | protein stability index (doa10∆) | protein stability index (pdr5∆) | protein stability index (san1∆) | protein stability index (ubr1∆)
LNELHPTLPTNHNKTKL [PRP8] | 2.88 ± 0.064 | 3.08 ± 0.062 | 2.84 ± 0.056 | 2.72 ± 0.039
ENYEGKQDKTLQKVENQ [YIL149C/MLP2] | 3.2 ± 0.18 | 3.29 ± 0.14 | 2.8 ± 0.17 | 3.21 ± 0.21
LAIIGDENPDLLGYTGI [PRE8] | 1.71 ± 0.06 | 1.93 ± 0.081 | 2.73 ± 0.098 | 1.93 ± 0.054
LPVMESLDSCTAAFTAM [YJR042W/NUP85] | 2.65 ± 0.085 | 2.37 ± 0.066 | 2.54 ± 0.071 | 2.37 ± 0.071
FQYGSRLPTFLKHKSIC [RPP1] | 2.24 ± 0.081 | 1.91 ± 0.055 | 1.68 ± 0.084 | 1.87 ± 0.063
QAIKEASYVNIPVIALT [RPS0A] | 2.07 ± 0.068 | 2 ± 0.061 | 2.15 ± 0.12 | 1.78 ± 0.057
DVNLDVRIHSIQVLTEA [IRR1] | 2.19 ± 0.15 | 2.84 ± 0.2 | 2.78 ± 0.18 | 2.84 ± 0.13
GIWNDLGSGSNVDVCVM [PUP1] | 2.69 ± 0.27 | – | – | –
IETIGHLITKEEIMHGL [RPN5] | 2.82 ± 0.089 | 3.31 ± 0.14 | 3.13 ± 0.079 | 2.97 ± 0.067
EDITEPKPDKPSGRTRG [ESC2] | 3.07 ± 0.15 | 2.96 ± 0.14 | 3.07 ± 0.11 | 3.26 ± 0.1
PRSDAQAIKEASYVNIP [RPS0A] | 2.88 ± 0.058 | 2.76 ± 0.048 | 2.71 ± 0.058 | 2.47 ± 0.034
DKNKLLLLAAQIVSYCS [SSN2] | 1.97 ± 0.039 | 1.66 ± 0.038 | 2.05 ± 0.06 | 1.74 ± 0.037
LAAVPAAGPASAGGAAA [RPP2A] | 2.35 ± 0.085 | 1.58 ± 0.063 | 1.4 ± 0.26 | 1.61 ± 0.071
RIQNRVKLGLNSKMPTR [PRP8] | 2.48 ± 0.16 | 2.92 ± 0.1 | 2.74 ± 0.13 | 2.91 ± 0.13
EVNSLLLQVNKTFCEDP [GRR1] | 3.27 ± 0.099 | 3.34 ± 0.066 | 3.22 ± 0.054 | 3.24 ± 0.044
GLMSANNIIAEGIEKMG [FAS2] | 1.68 ± 0.12 | 1.74 ± 0.098 | 1.58 ± 0.18 | 1.48 ± 0.084
KFQETLLRQKIEQCKHP [ISW2] | 1.34 ± 0.068 | 1.47 ± 0.068 | 1.24 ± 0.13 | 1.21 ± 0.063
QQQDQPEQSEQPEQHQD [RPN10] | 3 ± 0.052 | 3.12 ± 0.053 | 2.85 ± 0.046 | 3.24 ± 0.059
LCVLDYDNIDIQRGRIL [RPB7] | 1.96 ± 0.1 | 1.93 ± 0.1 | 3.08 ± 0.13 | 2.42 ± 0.12
YVMERPKNVPTSKWLNS [YDL116W/NUP84] | 2.61 ± 0.057 | 2.75 ± 0.055 | 2.63 ± 0.072 | 2.82 ± 0.043
TNDGIERYSDKYLKKRK [RPC31] | 3.23 ± 0.13 | 2.98 ± 0.18 | 3.43 ± 0.15 | 2.88 ± 0.091
LVSSASQQLLEILVTEL [RPN2] | 1.93 ± 0.059 | 2.27 ± 0.058 | 2.16 ± 0.092 | 1.8 ± 0.051
DRNNSTNQIFQSRRYNL [SIN4] | 2.78 ± 0.047 | 2.93 ± 0.049 | 2.71 ± 0.053 | 2.83 ± 0.039
PNELSQILTVDPKTSLR [RPC82] | 2.2 ± 0.069 | 1.91 ± 0.059 | 2.33 ± 0.067 | 2.45 ± 0.053
RQSSVGSLNATNFSPTP [SNF2] | 2.75 ± 0.049 | 2.98 ± 0.048 | 2.54 ± 0.044 | 2.96 ± 0.051
YKAISAQADKQDISSST [FAS2] | 2.91 ± 0.073 | 2.87 ± 0.058 | 2.3 ± 0.062 | 2.83 ± 0.045
